Literature values, collected in publication PMC10979101.

Target: Gab2 503-524 (Homo sapiens) (UniProt Q9UQC2)
Chain of UniProt Q9UQC2 (Q9UQC2 503-524): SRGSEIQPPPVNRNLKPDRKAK

Kd: 1.7 µM
Substance: Grb2 C-SH3 C-SH3 (from UniProt P62993)
